Entries after “also recorded” stand apart in the source; their conditions may differ.
Tests used:
[1] = Sialyltransferase activity in homogenate of E. coli carrying the JT-ISH-224 gene clones (14C-NeuAc transfer to lactose); assay type: biochemical; conditions: crude enzyme solution from E. coli TB1
Method: (§1) Sialyltransferase activity was measured as described in J. Biochem., 120, 104-110 (1996) (which is hereby incorporated by reference in its entirety). More specifically, the enzymatic reaction was accomplished by using CMP-NeuAc (70 nmol, containing about 20,000 cpm CMP-NeuAc in which NeuAc was labeled with ^14C; NeuAc represents N-acetylneuraminic acid) as a glycosyl donor substrate, lactose (1.25 μmol) as a glycosyl acceptor substrate, NaCl added to give a concentration of 0.5 M, and the enzyme-containing reaction solution (30 μl) prepared as described above. The enzymatic reaction was carried out at 25° C. for about 10 to 180 minutes. After completion of the reaction, 1.97 ml of 5 mM phosphate buffer (pH 6.8) was added to the reaction solution, which was then applied to a Dowex 1×8 (PO4^3− form, 0.2×2 cm, BIO-RAD) column. The radioactivity was measured for the reaction product, i.e., sialyllactose contained in the eluate (0 to 2 ml) from this column to calculate the enzyme activity. One enzyme unit (1 U) is defined as the amount of enzyme required to transfer 1 micromole of sialic acid per minute.
An induction experiment of protein expression was performed on the five clones obtained in (3) above (i.e., ISH224-N0C0/pTrc, ISH224-N1C0/pTrc, ISH224-N2C0/pTrc, ISH224-N3C0/pTrc and ISH224-N3.1C0/pTrc). A single colony of E. coli TB1 having the expression vector pTrc99A carrying each clone was inoculated into LB medium (6 ml) containing an antibiotic, ampicillin (final concentration 100 μg/mL), and pre-cultured at 30° C. to about A600=0.5, followed by addition of IPTG (isopropyl-β-D(−)-thiogalactopyranoside, Wako Pure Chemical Industries, Ltd., Japan) at a final concentration of 1 mM. After culturing with shaking at 30° C. for an additional 4 hours, the cells in 4 ml culture solution were collected by centrifugation. These cells were suspended in 200 μl of 20 mM Bis-Tris buffer (pH 7.0) containing 0.336% Triton® X-100 and 0.5 M sodium chloride, and ultrasonically homogenized under ice cooling. The resulting homogenate was defined as a crude enzyme solution, diluted 200-fold with 20 mM cacodylate buffer (pH 5.0) containing 0.336% Triton® X-100, and then provided for activity measurement. The reaction was carried out in duplicate. The reaction conditions are as indicated in the footnotes of Tables 1-1 and 1-2.
(§2) Reaction Conditions Reaction composition:
Reaction time: 2 minutes Reaction temperature: 30° C.

[2] = Sialyltransferase activity of samples after each purification step; assay type: biochemical; conditions: for Specific activity (U/mg) / Total activity (U): cacodylate pH 5, 5 minutes, 30° C.
Method: as §1
(§3) The enzyme activity was measured by the method reported in J. Biochem. 120, 104-110 (1996), in the same manner as described in Example 1 under conditions as indicated in the footnote of Table 3-1. For protein quantification, a Coomassie Protein Assay Reagent (PIERCE) was used according to the instruction manual attached thereto. One enzyme unit (1U) was defined as the amount of enzyme required to transfer 1 micromole of sialic acid per minute.
Reaction time: 5 minutes Reaction temperature: 25° C.
as §3, with “3-2.” for “3-1.”
as §2
Reaction time: 5 minutes Reaction temperature: 30° C.

[3] = after MONO Q (purified fraction)

B1: ISH224-N3C0: truncated protein, SEQ ID NO: 12: methionine plus amino acids 111-514 of SEQ ID NO: 2 (protein, listed as Photobacterium sp.)
chain: MNVVAPSLEVYVDHASLPTLQQLMDIIKSEEENPTAQRYIAWGRIVPTDEQMKELNITSFALINNHTPADLVQEIVKQAQTKHRLNVKLSSNTAHSFDNLVPILKELNSFNNVTVTNIDLYDDGSAEYVNLYNWRDTLNKTDNLKIGKDYLEDVINGINEDTSNTGTSSVYNWQKLYPANYHFLRKDYLTLEPSLHELRDYIGDSLKQMQWDGFKKFNSKQQELFLSIVNFDKQKLQNEYNSSNLPNFVFTGTTVWAGNHEREYYAKQQINVINNAINESSPHYLGNSYDLFFKGHPGGGIINTLIMQNYPSMVDIPSKISFEVLMMTDMLPDAVAGIASSLYFTIPAEKIKFIVFTSTETITDRETALRSPLVQVMIKLGIVKEENVLFWADLPNCETGVCIAV
- sialyltransferase activity of the expressed clone (in words) [1]: smallest clone that retained the activity
- sialyltransferase activity of the expressed clone (in words) ([1]; listed as ISH224-N3C0/pTrc): expressed sialyltransferase; also recorded: retained the activity
- Specific activity (U/mg) ([2]; Crude enzyme solution): 2.0 U/mg
- Total activity (U) ([2]; Crude enzyme solution): 4911 U
- Specific activity (U/mg) ([2]; after Hydroxyapatite): 151 U/mg
- Total activity (U) ([2]; after Hydroxyapatite): 997 U
- Specific activity (U/mg) [2, 3]: 264 U/mg
- Total activity (U) [2, 3]: 808 U
- Specific activity (U/mg) ([2]; after Q SEPHAROSE): 26.5 U/mg
- Total activity (U) ([2]; after Q SEPHAROSE): 3614 U
- fold higher specific activity than Pasteurella multocida-derived β-galactoside-α2,3-sialyltransferase (60 U/mg) ([2]; purified fraction): about 4.4 fold
- fold higher specific activity than β-galactoside-α2,6-sialyltransferase derived from Photobacterium damselae strain JT0160 (5.5 U/mg) ([2]; purified fraction): about 48 fold

Source: patent publication US8187838B2, “β-Galactoside-α2, 6-sialyltransferase, a gene encoding thereof, and a method for producing thereof” (Japan Tobacco Inc., priority 2006, dated 2012)
